Read-outs that look alike come from different tables or passages of the source.
Columns and labels:
c-Met-positive NSCLC = conditions: cited from earlier work
[1] = tested on: advanced solid tumors / NSCLC; conditions: cited from earlier work
c-Met protein = c-Met protein (Homo sapiens, UniProt P08581); assay: ELISA binding ability to c-Met antigen; conditions: c-Met protein coated at 2 μg/ml
Description: The c-Met protein was prepared with a diluent to a final concentration of 2 μg/ml, and added to a microplate at 100 μl per well, overnight at 4° C. The solution in the well was discarded, and the plate was washed three times with PBST. The plate was added with a blocking solution at 300 μl/well and incubated at 37° C. for 2 h. The solution in the well was discarded, and the plate was washed three times with PBST. AAJ8D6 antibody and ABT-700 (i.e., telisotuzumab, its sequence information can be found at https://extranet.who.int/soinn/mod/page/view.php?id=137&inn n=10366, the same below) were diluted to 9 concentrations, added to the 96-well plate and incubated for 2 h. The solution in the well was discarded, and the plate was washed three times with PBST. HRP detection antibody was prepared by adding diluent at a dilution of 1:5000, added at 100 μl per well, and incubated at 37° C. for 1 h. The solution in the well was discarded, and the plate was washed three times with PB ST. The plate was added with TMB color developing solution, incubated at room temperature for 2 min, and then added with Elisa stop solution.

[2] = combined administration group (with erlotinib)
[3] = single administration cohort, c-Met-positive NSCLC

Chain of c-Met protein (P08581 25-1390): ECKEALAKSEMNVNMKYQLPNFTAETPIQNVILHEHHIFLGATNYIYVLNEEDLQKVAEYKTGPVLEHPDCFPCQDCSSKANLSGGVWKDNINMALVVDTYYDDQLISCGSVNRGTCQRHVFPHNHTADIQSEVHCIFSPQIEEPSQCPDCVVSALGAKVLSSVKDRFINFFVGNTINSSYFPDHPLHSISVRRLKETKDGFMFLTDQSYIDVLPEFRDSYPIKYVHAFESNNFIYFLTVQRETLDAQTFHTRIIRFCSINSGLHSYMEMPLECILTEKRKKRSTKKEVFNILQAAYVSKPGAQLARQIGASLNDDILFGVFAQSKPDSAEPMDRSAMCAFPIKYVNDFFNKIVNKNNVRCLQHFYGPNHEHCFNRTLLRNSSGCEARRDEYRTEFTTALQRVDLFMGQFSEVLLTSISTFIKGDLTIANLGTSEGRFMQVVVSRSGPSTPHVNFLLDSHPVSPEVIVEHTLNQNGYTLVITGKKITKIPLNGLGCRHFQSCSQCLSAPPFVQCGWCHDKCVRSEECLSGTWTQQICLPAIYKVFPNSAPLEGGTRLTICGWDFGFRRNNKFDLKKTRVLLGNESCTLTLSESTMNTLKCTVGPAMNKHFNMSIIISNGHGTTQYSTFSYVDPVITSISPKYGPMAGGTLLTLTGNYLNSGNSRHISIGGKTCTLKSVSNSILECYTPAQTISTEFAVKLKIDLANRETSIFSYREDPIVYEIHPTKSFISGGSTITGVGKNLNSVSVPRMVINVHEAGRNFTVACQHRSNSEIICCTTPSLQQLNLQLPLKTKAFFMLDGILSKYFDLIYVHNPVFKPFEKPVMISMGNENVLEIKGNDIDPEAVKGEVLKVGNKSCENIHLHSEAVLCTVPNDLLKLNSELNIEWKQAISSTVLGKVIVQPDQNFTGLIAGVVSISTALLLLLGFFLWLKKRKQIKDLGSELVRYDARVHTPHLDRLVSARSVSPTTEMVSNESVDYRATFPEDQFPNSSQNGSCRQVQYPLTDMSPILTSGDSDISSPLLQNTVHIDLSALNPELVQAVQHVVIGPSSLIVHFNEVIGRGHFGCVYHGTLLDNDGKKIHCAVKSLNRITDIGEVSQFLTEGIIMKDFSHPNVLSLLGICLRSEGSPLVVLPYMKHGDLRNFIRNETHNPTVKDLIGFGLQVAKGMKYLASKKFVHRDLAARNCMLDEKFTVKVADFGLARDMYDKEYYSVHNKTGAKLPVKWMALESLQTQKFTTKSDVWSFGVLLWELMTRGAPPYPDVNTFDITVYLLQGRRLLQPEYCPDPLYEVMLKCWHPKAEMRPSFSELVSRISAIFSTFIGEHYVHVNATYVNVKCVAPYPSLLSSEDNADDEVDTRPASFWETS

| EC50 (c-Met protein) [ng/mL] | Substance | dose at which well tolerated (c-Met-positive NSCLC; NSCLC patients) [mg/kg] | patients with partial remission (c-Met-positive NSCLC; combined administration group (with erlotinib), 1 remains to be confirmed) | patients under control (c-Met-positive NSCLC; combined administration group (with erlotinib), after 12 weeks of treatment) [%] | adverse reaction: nausea, patients (c-Met-positive NSCLC; [2]) [%] | adverse reaction: neuralgia, patients (c-Met-positive NSCLC; [2]) [%] | adverse reaction: fatigue, patients (c-Met-positive NSCLC; [3]) [%] | adverse reaction: nausea (first listed), patients (c-Met-positive NSCLC; [3]) [%] | adverse reaction: nausea (listed a second time), patients (c-Met-positive NSCLC; [3]) [%] | treatment-related deaths (c-Met-positive NSCLC; single administration group and combined administration group) | patients under control (c-Met-positive NSCLC; single administration group, after 12 weeks of administration) [%] | patients who experienced partial remission (c-Met-positive NSCLC; single administration group) | patients who experienced partial remission ([1]; NSCLC patients with H-score ≥150) | tolerated dose ([1]; every three weeks) [mg/kg] | most frequently occurring toxicity: decreased appetite ([1]; in vivo) [%] | most frequently occurring toxicity: diarrhea ([1]; in vivo) [%] | most frequently occurring toxicity: vomiting ([1]; in vivo) [%] |
| --- | --- | --- | --- | --- | --- | --- | --- | --- | --- | --- | --- | --- | --- | --- | --- | --- | --- |
| – | ABBV-399 | 2.7 | 4/13 | 76.9 | 23.1 | 46.2 | 43.8 | 37.5 | 18.8 | no treatment-related deaths | 56.3 | 3/16 | about 19% | 2.7 | 13 | 10 | 13 |
| 1.33 | ABT-700: competitor anti-c-Met antibody, i.e. telisotuzumab | – | – | – | – | – | – | – | – | – | – | – | – | – | – | – | – |

— patent US12528870B2, “Anti-c-Met antibody-drug conjugate and applications thereof” (REMEGEN CO., LTD., priority 2020, dated 2026)
